Results reported in publication PMC3576267.

Columns and labels:
[1] = system: GST-Jazz (three zinc finger artificial transcription factor) (synthetic construct); assay: EMSA; settings: 50 uM ZnCl2; 5-96 nM protein; at 12 nM shift weaker than GST-UtroUp (Fig. 2C); EMSA: 20 mM Hepes pH 7.5, 0.5 mM DTT, 100 mM NaCl, 50 uM ZnCl2, 50 ug/ml BSA, 100 ng poly(dI-dC), 0.05% NP40, 5% glycerol; temperature not stated
[2] = system: GST-UtroUp (six zinc finger artificial transcription factor) (synthetic construct); assay: EMSA; settings: 50 uM ZnCl2; 1-90 nM protein; mean of five experiments; EMSA: 20 mM Hepes pH 7.5, 0.5 mM DTT, 100 mM NaCl, 50 uM ZnCl2, 50 ug/ml BSA, 100 ng poly(dI-dC), 0.05% NP40, 5% glycerol; temperature not stated

## ATTAAGCCGGGCTGCTGCGGGCTGGGAGTATGATCC (double strand) [WT UtroUp (UtroUp-Jazz) DNA target]
[1]
  Kd: 32 nM
[2]
  Kd: 3.5 nM
